Test results as given in PMC3120933 (Journal of the American Chemical Society, 2011).

T1: cav(1-104), truncated caveolin-1 with intramembrane and C-terminal domains deleted (human, UniProt Q03135 1-104)
T1 sequence (looked up): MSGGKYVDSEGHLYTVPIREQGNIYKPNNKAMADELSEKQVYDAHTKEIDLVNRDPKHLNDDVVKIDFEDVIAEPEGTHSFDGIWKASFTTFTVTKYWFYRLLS


Target: T1, cav(1-104), truncated caveolin-1 with …
Test: ITC

Binder | dH1 (first binding site) | dH2 (second binding site)
YTSLIHSLIEESQNQQEKQEKELMELERWGSMLKCF (designed binder) [caveolin ligand 4 fused to MBP] | -20.6 kcal/mol | 44.8 kcal/mol
YTSLIHSLIEESQNQQEKHEKEIIDIERWASMLQLF (designed binder) [caveolin ligand 5 fused to MBP] | -26.1 kcal/mol | 83.9 kcal/mol
